Measurements taken from US20190330358A1.

Assays:
[1] = biological target: human AITR expressed on the cell surface (human) (UniProt Q9Y5U5); assay: flow cytometry on iTreg cells, surface AITR
[2] = biological target: human AITR expressed on the cell surface (human) (UniProt Q9Y5U5); assay: flow cytometry on AITR-5 cells (HEK293 overexpressing human AITR); unstained AITR-5 panel: Q1 0.98
[3] = biological target: human AITR expressed on the cell surface (human) (UniProt Q9Y5U5); assay: flow cytometry on human iTreg cells; average of TRX518 and MK4166

human AITR expressed on the cell surface (human), sequence (Q9Y5U5 26-241): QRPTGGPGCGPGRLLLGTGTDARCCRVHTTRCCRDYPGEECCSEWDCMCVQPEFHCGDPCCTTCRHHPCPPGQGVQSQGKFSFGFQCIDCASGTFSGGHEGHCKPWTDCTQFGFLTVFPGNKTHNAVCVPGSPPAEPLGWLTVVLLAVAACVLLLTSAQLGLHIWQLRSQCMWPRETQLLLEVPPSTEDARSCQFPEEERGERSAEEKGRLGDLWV

Row | % of iTreg cells in the upper right quadrant (CD4+, antibody-positive) [1] [%] | % of AITR-5 cells in Q1 (antibody-positive) [2] [%] | % of iTreg cells recognized as positive for human AITR [3] [%] | Substance
1 | 0.79 | 1.95 | – | Isotype control (antibody)
2 | 20.8 | – | 19 | TRX518 (antibody)
3 | 17.1 | – | 19 | MK4166 (Merck's anti-GITR antibody)
